{
  "source": "paper PMC3633930",
  "about": "“Low Voltage Activation of KCa1.1 Current by Cav3-KCa1.1 Complexes” (PLoS ONE, 2013)",
  "binders": {"B1": {"name": "KCa1.1 potassium channel α-subunit, full length, myc-tagged, human (natural protein)", "chain": "not shown"}},
  "molecular_target": "Cav3.2 calcium channel α-subunit, full length, human (human, UniProt O95180 1-2353)",
  "sequence (O95180 whole entry)": "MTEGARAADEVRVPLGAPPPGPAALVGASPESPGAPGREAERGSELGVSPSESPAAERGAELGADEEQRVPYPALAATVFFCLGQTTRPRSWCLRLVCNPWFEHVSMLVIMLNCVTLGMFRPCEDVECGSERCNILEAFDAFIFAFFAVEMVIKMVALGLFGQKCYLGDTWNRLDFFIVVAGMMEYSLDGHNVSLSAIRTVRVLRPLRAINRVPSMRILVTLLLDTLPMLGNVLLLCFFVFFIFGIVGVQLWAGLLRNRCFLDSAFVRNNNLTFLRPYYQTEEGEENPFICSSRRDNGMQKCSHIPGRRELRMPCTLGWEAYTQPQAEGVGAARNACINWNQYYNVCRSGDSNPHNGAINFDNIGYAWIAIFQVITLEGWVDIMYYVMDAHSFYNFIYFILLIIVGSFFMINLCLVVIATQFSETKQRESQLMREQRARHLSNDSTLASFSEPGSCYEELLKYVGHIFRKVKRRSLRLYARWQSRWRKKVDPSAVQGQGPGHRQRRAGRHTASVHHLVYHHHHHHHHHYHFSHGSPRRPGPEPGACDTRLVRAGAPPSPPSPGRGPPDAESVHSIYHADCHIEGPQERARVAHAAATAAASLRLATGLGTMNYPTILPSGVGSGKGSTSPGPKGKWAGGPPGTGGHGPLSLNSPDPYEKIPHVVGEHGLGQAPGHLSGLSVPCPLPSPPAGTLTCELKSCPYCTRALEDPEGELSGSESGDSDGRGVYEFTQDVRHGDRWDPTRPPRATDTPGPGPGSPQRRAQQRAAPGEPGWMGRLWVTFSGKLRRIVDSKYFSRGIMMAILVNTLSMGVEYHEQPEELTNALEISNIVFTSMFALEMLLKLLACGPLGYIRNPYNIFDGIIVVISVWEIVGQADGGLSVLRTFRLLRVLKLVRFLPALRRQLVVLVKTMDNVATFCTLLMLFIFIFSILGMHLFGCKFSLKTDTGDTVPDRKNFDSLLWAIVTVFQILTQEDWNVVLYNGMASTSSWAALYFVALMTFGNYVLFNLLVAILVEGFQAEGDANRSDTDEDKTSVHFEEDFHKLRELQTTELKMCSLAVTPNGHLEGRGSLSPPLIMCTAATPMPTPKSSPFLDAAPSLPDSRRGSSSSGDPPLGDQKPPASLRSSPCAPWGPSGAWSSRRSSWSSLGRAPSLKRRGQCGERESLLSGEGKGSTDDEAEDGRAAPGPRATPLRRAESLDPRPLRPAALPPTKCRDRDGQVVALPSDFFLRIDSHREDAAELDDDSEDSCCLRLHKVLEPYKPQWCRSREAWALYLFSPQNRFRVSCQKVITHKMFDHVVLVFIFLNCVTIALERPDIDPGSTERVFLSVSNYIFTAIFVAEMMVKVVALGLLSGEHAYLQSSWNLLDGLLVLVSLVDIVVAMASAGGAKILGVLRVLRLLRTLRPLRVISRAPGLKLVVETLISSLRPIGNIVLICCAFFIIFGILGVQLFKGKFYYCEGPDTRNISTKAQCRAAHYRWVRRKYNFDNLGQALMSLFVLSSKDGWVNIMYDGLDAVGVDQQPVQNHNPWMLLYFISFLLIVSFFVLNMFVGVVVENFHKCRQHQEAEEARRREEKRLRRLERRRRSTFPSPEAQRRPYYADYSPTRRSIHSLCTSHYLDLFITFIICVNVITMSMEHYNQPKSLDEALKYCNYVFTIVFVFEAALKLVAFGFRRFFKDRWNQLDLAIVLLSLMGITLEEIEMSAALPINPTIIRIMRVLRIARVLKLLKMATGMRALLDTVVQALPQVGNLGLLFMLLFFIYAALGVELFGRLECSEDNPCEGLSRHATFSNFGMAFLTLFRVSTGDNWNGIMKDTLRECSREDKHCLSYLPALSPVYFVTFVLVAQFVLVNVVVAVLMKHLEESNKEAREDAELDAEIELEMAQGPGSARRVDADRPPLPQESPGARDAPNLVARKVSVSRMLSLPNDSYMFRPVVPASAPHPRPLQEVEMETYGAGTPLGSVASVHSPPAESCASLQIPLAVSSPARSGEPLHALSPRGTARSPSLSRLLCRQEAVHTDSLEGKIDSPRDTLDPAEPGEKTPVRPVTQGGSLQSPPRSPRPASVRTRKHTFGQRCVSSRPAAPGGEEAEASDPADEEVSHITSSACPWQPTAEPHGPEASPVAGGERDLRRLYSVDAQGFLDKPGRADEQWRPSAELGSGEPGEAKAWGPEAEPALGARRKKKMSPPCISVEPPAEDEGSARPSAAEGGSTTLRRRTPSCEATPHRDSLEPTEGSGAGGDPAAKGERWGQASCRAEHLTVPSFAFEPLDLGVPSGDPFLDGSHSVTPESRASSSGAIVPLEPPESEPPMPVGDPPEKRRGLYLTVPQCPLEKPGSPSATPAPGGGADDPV",
  "assay": "cell-based or functional assay",
  "data": [
    {"binder": "B1", "values": [
      {"measurement": "fold increase of the P2/P1 ratio of KCa1.1 current at +40 mV when P2 is preceded by a −30 mV prepulse, whole-cell patch clamp of tsA-201 cells coexpressing Cav3.2 and KCa1.1", "result": 2.7, "unit": "fold"}
    ]}
  ]
}
